Data taken from the DeepSol protein solubility set.

test: soluble on expression in E. coli; label from the status in PepcDB or PDB records

Row | Sequence | soluble on expression in E. coli
1 | SVLVLDDRIVDAATKDLYVNGFQEEIQYQNPTPENLQHMFHQGIEILDSARMINVTHLALWKPSSFKLGNPVDFALDDNYDTFWQSDGGQPHQLDIMFSKRMDICVMAIFFSMIADESYAPSLVKVYAGHSPSDARFYKMLEVRNVNGWVALRFLDNREDDQLLKCQFIRLLFPVNHENGKDTHLRGIRLYVPSNEPHQDTHEWAQTLPETNNVFQDAILR | soluble
2 | MSLNDGRLEIFQEGKPGRRIDEDQVFAAVLDALTKPAEQRTVTVAFREIPPPITAANLDQLGITTLIGVGRSDFTGSAAYRVTNIQAGMRLLHGVLIAPGEEFSFNQTIGRIDRSNGFVEGYAIIQNRTQLEWGGGICQDSTTMFRAAFWAGLPITERWGHSFYISWYDRYAFGPYGDGPGMDATIFTGGPDLKFLNDTGGWLLIQTLVDTHRHLAEVRLYGPDTGRKVLLEGPIITNRTPPPEEPVYVASPDRPVGQPRQSDTARGGMDILFTRIVLGPDGKEIERRQFVTRFKPWPNIFEYNPADEGHHHHHH | soluble
3 | MGSDKIHHHHHHMVKKREGDEVQSELMRILAEKQERKENIALVTVISSNSPRGCRAGEMMLVDRFGYIIGDGIGDSLLQENAQREAQICINEGISRRVILPSEEGMTEVFINAFCHRDQLIIVGSGNVALNVYRIASIVGYSITVIDNRAETLSRERFPEAKELLLGDIVELLKAYNIDENTSIVLLSYHHEFDEAALLTVIHSPARYIGIMGNKHKVTAYFSKLNELNIAEELISRVHVPVGIDIGGERAAEIALAVVAEMQAIKYGRAGGFRILQSEITGKVERDELF | not soluble
4 | MGSDKIHHHHHHMVLLETNRLRLQTIDIPLLDAASKQDHQAIKELGYETNGEWPNSDFFEAIPYFREILVKNNGTKGFDSWIIVKKDNYEIVGGTGFLGDPDENGMIEIGFATNKSHRRKGYCVEAAQKLINWALSRETVSRITARCEHDNLGSQKTLEKLGFILNHKSAEYKHWIYVTK | not soluble
5 | SESICNSLNSKLEPTLENLENLDVSAFQAPEDLLDGCRIYLCGFSGRKLDKLRRLINSGGGVRFNQLNEDVTHVIVGDYDDELKQFWNKSAHRPHVVGAKWLLECFSKGYMLSEEPYIH | soluble
6 | MGSDKIHHHHHHMNIIKFFNQTIDYIETTLEDKIDEKKIVQLSGYSYPMFSRIFSILTAYSLSEYIRLRRLTKAAFDLRKNEEKVIDIAFKYQYESPDSFSLAFKKYHNCTPMEVKQGKDFKIFSPIHLSLTIKGGKAMEISIKKKEKFIVGGIKAENIETFQCPKVWEELFKKVSFNDLEKLGNGNSYGVCYETTSSKSINYIAAFDVKNVSEAKKLGLDTMEIPEAEYAVVKLKGKIPNCIHEGWKYVMEVFFPEHGYKHAGTPDFELYSEGDMGSDNYEMELWVPIIKAE | not soluble
7 | MENKEVIIIGAGAAGVGMGVALKDFGINNFAILERKQVGNSFIKWPEQTRFITPSFTSNGFGMPDLNAIAIDTSPSYTLGEERLSGKDYAKYLQLVSEEYKLPIKTNCKVQSIKKEKTGYLLETTKGFIYAEYVIFAMGEFSFPNKSSIKGAYKNSLHYGEINSWIEIKGDKQTIIGGNESAIDAAIELAKLGKRVTIYTDTLGLNIRDADPSKRLAPRTRQRFFDLRVNQKKLDSIKIYTTTKVKKIEKKSTSYILITENGKSLPVENIPILCTGFKNGTKSITASLFKYKENGEVLLNDFDESTIAKNIFLTGPNVRKGNTIFCYIYKFRQRFAVIANEIARRKHITIDEKKLSYYKNQSFYLDGCSGCEVRCSCLEHHHHHH | soluble
8 | MSLTNEKSTEEIALGIRRRVFFHTMKNNGGYLSQACSAAESLALLYNELLTLGEPTLPKVPLPFRGVPSAHNPDAFTGAGYHGPVGPNFDRFFISPAHYALVIYSVLIEMGRMDEHALDHFNKDGGSVEMIGAEHSPGMEVTTGSLAQGLSMASGVAWARLRKKEPGKVWVYMSDGEFQEGQTWECLAAMSYHKIDNIRVIVDVNRQQCDGAMSSVLDLGDLASRVASFGVTCRSVDGHDLGALRAAAESAEAGKPLVILANTSPYQGMDFLKKRFPRLHYVRFKSAEERQEMQTALAIELGIDLTAMERAEGHHHHHH | not soluble
9 | MGSDKIHHHHHHMSTSPLYYAKKTQELCALSDVYITLNRMLSSDGCSLEQLADAIAYEPAIAASILKIANSAMFSMPRKIDSLSKALTILGIKEVKKLVNAYGITAAFSNLDPNVVDMDKFWEISVDCALICQYFAKNKQIPNTDNIFLSGLFHNLGMLAMISSEPAKVRYCEGYDRDETPWFRQNQVFGFTFADCTTELLKLWDLPDSIIQPIAEFNGAEHEPLPDNSKLLYMASRLAVINADPGLYAKEALIDKAILDDLGIESSDMSQSLEYCNEQAMELLATFPIQGRKSSE | not soluble
10 | MSLEKEAFMEKLLSFMKEEAYKPLTVQELEEMLNITEAEEFKELVKALVALEEKGLIVRTRSDRYGIPEKMNLIKGKISAHAKGFAFLLPEDTSLSDVFIPPNELNTAMNGDIVMVRLNSQSSGSRQEGTVIRILERAIQRVVGTYTETRNFGFVIPDDKKITSDIFIPKNGKNGAAEGHKVVVKLTSYPEGRMNAEGEVETILGHKNDPGIDILSVIHKHGLPGEFPADAMEQASSTPDTIDEKDLKDRRDLRDQVIVTIDGADAKDLDDAVTVTKLDDGSYKLGVHIADVSHYVTENSPIDKEALERGTSVYLVDRVIPMIPHRLSNGICSLNPKVDRLTLSCEMTINSQGQVTEHEIFQSVIKTTERMTYSDVNKILVDDDEELKQKYEPLVPMFKDMERLAQILRDKRMDRGAVDFDFKEAKVLVDDEGAVKDVVIRERSVAEKLIEEFMLVANETVAEHFHWMNVPFIYRIHEEPNAEKLQKFLEFVTTFGYVVKGTAGNIHPRALQSILDAVRDRPEETVISTVMLRSMKQAKYDPQSLGHFGLSTEFYTHFTSPIRRYPDLIVHRLIRTYLINGKVDEATQEKWAERLPDIAEHTSSMERRAVDAERETDDLKKAEYMLDKIGEEFDGMISSVTNFGMFVELPNTIEGLVHVSFMTDDYYRFDEQHFAMIGERTGNVFRIGDEITVKVVDVNKDERNIDFEIVGMKGTPRRPRELDSSRSRKRGKPARKRVQSTNTPVSPAPSEEKGEWFTKPKKKKKKRGFQNAPKQKRKKKKEGHHHHHH | soluble
11 | KALVSIQASNIPKTAYTATDFVDMNSYSYNNITTSLPGNYADFAVIEVNLNLKNQRDQQILHDFVKPAIKAYKALGDTLELFSAKPLNQFIEQNYYLLGYPVINKGNNTANLLLAQQKSFDHNNSDHNQKSQWFTK | not soluble
12 | MSDVSRILKEARSQSRLTTLDYAEQIFDDFMELHGDRHFADDGAIVGGIGLLDGQAVTVIGVQKGKNLQDNLNRNFGQPNPEGYRKALRLMKQAEKFKRPVVTFINTAGAYPGIGAEERGQGEAIARNLLEMSDLKVPIIAIIIGEGGSGGALALAVADKVWMLEHTMYAVLSPEGFASILWKDGSRSIEAAELMKITAGELLKMEVVDKVIPEHGYFSSEIIQMLKTNLIEELKNLDQYPLNDLLEKRYQRFRKY | not soluble
13 | MGSDKIHHHHHHMQFDPPLQPAILLKRYKRFLADVVTPDGRELTLHCPNTGAMTGCAAPGDTVWYSTSDNAKRKYAHTWELTETQQGAVICVNTLRANSLAKEAISAGIIPELSGYNQLKSEVKYGEENSRIDIMLQADDRQNCYIEVKSVTLAEKEYGYFPDAVTTRGQKHLRELMAVAANGDRAVILFAVLHSAIDRFSPAHHIDARYAQLLTEAQDKGVEILAWKAELSTTRMTLNKPIAVVLNPGK | not soluble
14 | AHHHHHHGSVEQDPYEIVIKQLERAAQYMEISEEALEFLKRPQRIVEVTIPVEMDDGSVKVFTGFRVQHNWARGPTKGGIRWHPEETLSTVKALAAWMTWKTAVMDLPYGGGKGGIIVDPKKLSDREKERLARGYIRAIYDVISPYEDIPAPDVYTNPQIMAWMMDEYETISRRKTPAFGIITGKPLSIGGSLGRIEATARGASYTIREAAKVLGWDTLKGKTIAIQGYGNAGYYLAKIMSEDFGMKVVAVSDSKGGIYNPDGLNADEVLKWKNEHGSVKDFPGATNITNEELLELEVDVLAPAAIEEVITKKNADNIKAKIVAEVANGPVTPEADEILFEKGILQIPDFLCNAGGVTVSYFEWVQNITGYYWTIEEVRERLDKKMTKAFYDVYNIAKEKNIHMRDAAYVVAVQRVYQAMLDRGWVKH | soluble
15 | MSLDFLSQCTSGGCGAKIESRVLNQLLQHLPETPANERLLVGFEHADDAAVYQITSEKALISTVDFFSPMVNDPLSFGKIAVANALSDVYAMGGTVLYALNLVCFPQKMSKEWLEQMLLGGSLKLKEAGALLAGGHSIYDHEPKYGLAVTGEVHPENLWHNNTPQVGDVLILTKALGVGIIQAAVRGQLAKQTEQKIAQDSMERLNKYAAANARSYAVHACTDVTGFGLLIHAKEMADNQVTLLIDTEALPTITGALAYAAECLVTAAGQRNRQTIGTTIDYSKISMEMQELLFDPQTSGGLLISVAADEAAACLAAIQKEDPVAKIIGEVLPKEQQAVVLLEGHHHHHH | not soluble
16 | MGSDKIHHHHHHMLKENRSLDRGIEILETLAREGAMSLADLHRATGLPKSTLRRLLQTLIARKIVRRSLADKLYRTLVVFPDISGEVMPKGMLHISEAAIPRALALTKEIGWPSDIHIRETRAMRIIDNTRHASTFHVERGQINQRVSHFGSATGLACLAEMKDAEIATIYEAFKPDLQWGPVRFGLDLAGLMARIEQVRQVGYAERLSAPMSDPDWDTDLRAIAVAIKARGRVVGGLSVLWLRPYKPVEEFARLHLEALQTAAAEINATLDAVWEDAAT | not soluble
17 | MLPMQLPFQRARRLCLRAALAAIASAAHADDGTIVITGTITDTTCVIEDPAGPTHTKVVQLPKISKSALAKDGDEAGRTPFLITLKNCPSSLNNGVKAYFEPGPTTDYATGDLKAYSIAYNNNPATTQNAIIAASEAQGVQIRISNQNGTKIPMGVDAAAQNAQAFNPVTDTADNAKKKVTLRYLASYVKKSGNITTGQLTTYVGFSMIYP | not soluble
18 | MDQEIKSLELNITQLSAITGAHRQTIASRLKGVKTSGGNGSNLKIYRLVDILTAMMTMPAVTGENDPNKMKPSDRRAWFQSEMTRIELEKEMRTLIPASEVLSVYAVMAKTVVKTLEILPDLLERDAALPPDALEMTQKIIDQLREDLASMTYQACADAINGDDDDNGDEGQEEEQE | not soluble
19 | MVKESGMASLLLENPYYGYRKPKDQLRSSLKNVSDLFVMGGALILESAALLHWLERDGFWPLGMTGISMGGHMASLAVTNWPKPIPLIPCLSWTTASSVFTTGVLSRAVNWRELEKQYATHTVYEEEIISMLEYCGTDSFRMGQEFVKNAPGSFDGLDLTQELLQSGQQVALRSSYSGRPASDQDSSVLMGRRERDGLDQMLSAVSSSAPHLDMLHAKSIACGSGQRQSLQRESLCFMKGVMDECTHIANFSVPVDPSLIIIVQAKEDAYVPRTGVRSLQEIWPGCEVRYLNGGHISAYLFKQGLFRQAIYDAYDRFLHKYSSL | soluble
